# Literature values, collected in paper PMC6478893.
# Target: Glu73 (UniProt position 86, GLTFTEKWNTD)
substance,measurement,value
"Voltage-dependent anion channel 1 (VDAC1) (Mus musculus (inferred from the title of ref. 51, 'mVDAC1'; the article text says only 'VDAC1'))",pKa,~7.4
